Holding throughout (test): SPR; ProteOn XPR36; DR3 variants (5 ug, acetate buffer pH 5.5) immobilised on a GLC chip, BSA as reference; TL1A run at 100, 50, 25, 12.5 and 6.25 nM, 30 ul/min, 300 s, 10 min dissociation; PBS with 2 mM DTT; Langmuir single binding site model
The target in test [1] is DR3 variant O6 (DR3 extracellular domain-Fc) (human) (UniProt Q93038).
In test [2] the target is DR3 variant H3 (DR3 extracellular domain-Fc) (human) (UniProt Q93038).
For a further test, the target named is T1, TNF-like 1A (TL1A) (UniProt O95150 72-251).
T1 construct: TL1A (TNF-like 1A), the cytokine run over immobilised DR3 variants in SPR and added to cells; also called TL1A cytokine
T1 sequence (looked up): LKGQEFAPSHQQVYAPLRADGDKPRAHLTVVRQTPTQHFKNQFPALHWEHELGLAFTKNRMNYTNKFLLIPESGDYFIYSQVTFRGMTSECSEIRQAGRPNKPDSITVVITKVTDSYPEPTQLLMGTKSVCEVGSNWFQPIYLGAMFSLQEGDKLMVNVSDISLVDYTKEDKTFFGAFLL
Conditions: both partners purified.

In test [1], “TNF-like 1A (TL1A) (from UniProt O95150 72-251) (ligand)” yielded a dissociation constant (Kd) of 9.83 nM, an off-rate constant (koff) of 0.000357 s⁻¹ and a kon of 36300 M⁻¹ s⁻¹. Also, in test [2], the dissociation constant Kd is 8.26 nM, the koff was determined as 0.000351 s⁻¹ and the on-rate constant (kon) is 42600 M⁻¹ s⁻¹.

B1: native DR3-Fc (human DR3 extracellular domain fused with human IgG1 Fc) (Fc fusion, UniProt Q93038 25-199, looked up)
chain: QGGTRSPRCDCAGDFHKKIGLFCCRGCPAGHYLKAPCTEPCGNSTCLVCPQDTFLAWENHHNSECARCQACDEQASQVALENCSAVADTRCGCKPGWFVECQVSQCVSSSPFYCQPCLDCGALHRHTRLLCSRRDTDCGTCLPGFYEHGDGCVSCPTSTLGSCPERCAAVCGWRQ
modifications: N-linked glycosylation (shown by Endo-H cleavage)
notes: amplified from an EST cDNA clone (Open Biosystems); pFUSE vector (Invivogen); also called WT; soluble native DR3; source: HEK293T, transfected, conditioned medium (ELISA screen); 293F (HEK293F), transfected, purified (MonoQ, SP, butyl HIC); not shown: Fc (human IgG1), C-terminal, kept
For the molecule B1, in the test with TNF-like 1A (TL1A), the Kd amounted to 44.9 nM, the koff came to 0.00072 s⁻¹ and the on-rate constant (kon) turned out to be 16000 M⁻¹ s⁻¹.

The record behind these values is PMC5344418, “Directed evolution of a soluble human DR3 receptor for the inhibition of TL1A induced cytokine secretion” (PLoS ONE, 2017).
